Results taken from article PMC6684588.
One block for each molecule: values may come before it.

Key:
[1] = target: ACE-083 (FST291-Fc fusion protein) (human); test: SPR; Biacore T100, capture format at 37 °C; ACE-083 captured on an anti-human IgG Fc sensor chip, ligands injected as analytes in a concentration series in duplicate; association 210 sec, dissociation 600 sec (1200 sec for activin A and GDF11); global fit to a 1:1 binding model with mass transfer term; apparent KD
[2] = target: ACE-083 (human); test: SPR; detailed kinetics: ACE-083 captured on immobilized goat anti-human Fc-specific antibody; two-fold series of BMP6 (0.156 nM-5 nM) and BMP7 (0.078 nM-5 nM) injected in duplicate, association 210 sec, dissociation 600 sec, 100 μl/min; global fit to 1:1 model with mass transport term (BIAevaluation); means of two flow cells
[3] = target: activin A (UniProt P08476)
[4] = target: activin B (UniProt P09529)
[5] = target: growth differentiation factor 11 (GDF11) (UniProt O95390)
[6] = target: myostatin (GDF8) (UniProt O14793)
[7] = target: activin A (UniProt P08476); remark: listed apart in the source
[8] = target: activin B (UniProt P09529); remark: listed apart in the source
[9] = target: growth differentiation factor 11 (GDF11) (UniProt O95390); remark: listed apart in the source
[10] = target: myostatin (GDF8) (UniProt O14793); remark: listed apart in the source

Kd [1]: 348 pM | koff [1]: 0.000185 s⁻¹ | kon [1]: 532000 M⁻¹ s⁻¹
Molecule: myostatin (GDF8) (from UniProt O14793 267-375) (ligand)

Kd [2]: 291 pM | koff [2]: 0.00196 s⁻¹ | kon [2]: 6.75e+06 M⁻¹ s⁻¹
Molecule: BMP7 (from UniProt P18075 293-431) (ligand)

IC50 of inhibition of activin A signaling through its cognate receptors, CAGA12 dual-luciferase reporter-gene assay in A204 cells [3]: 39.2 pM | IC50 of inhibition of activin B signaling through its cognate receptors, CAGA12 dual-luciferase reporter-gene assay in A204 cells [4]: 49.2 pM | IC50 of inhibition of GDF11 signaling through its cognate receptors, CAGA12 dual-luciferase reporter-gene assay in A204 cells [5]: 75.9 pM | IC50 of inhibition of GDF8 signaling through its cognate receptors, CAGA12 dual-luciferase reporter-gene assay in A204 cells [6]: 676 pM
Molecule: ACE-083 (FST291-Fc fusion protein)

Supplementary Figure S2: IC50 of ACE-083 for inhibition of activin A signalling through its cognate receptors, luciferase reporter-gene assay in A204 cells (representative curve of three experiments) [7]: 4.63 ng/mL | Supplementary Figure S2: IC50 of ACE-083 for inhibition of activin B signalling through its cognate receptors, luciferase reporter-gene assay in A204 cells (representative curve of three experiments) [8]: 4.75 ng/mL | Supplementary Figure S2: IC50 of ACE-083 for inhibition of GDF11 signalling through its cognate receptors, luciferase reporter-gene assay in A204 cells (representative curve of three experiments) [9]: 8.04 ng/mL | Supplementary Figure S2: IC50 of ACE-083 for inhibition of GDF8 signalling through its cognate receptors, luciferase reporter-gene assay in A204 cells (representative curve of three experiments) [10]: 81.9 ng/mL
Molecule: ACE-083 (Fc fusion)

Kd [1]: 15.4 pM | koff [1]: 7.2e-05 s⁻¹ | kon [1]: 4.77e+06 M⁻¹ s⁻¹
B1: growth differentiation factor 11 (GDF11) (ligand)
chain: NLGLDCDEHSSESRCCRYPLTVDFEAFGWDWIIAPKRYKANYCSGQCEYMFMQKYPHTHLVQQANPRGSAGPCCTPTKMSPINMLYFNDKQQIIYGKIPGMVVDRCGCS

Kd [1]: 78.8 pM | koff [1]: 0.000155 s⁻¹ | kon [1]: 1.97e+06 M⁻¹ s⁻¹
B2: activin A (ligand)
chain: GLECDGKVNICCKKQFFVSFKDIGWNDWIIAPSGYHANYCEGECPSHIAGTSGSSLSFHSTVINHYRMRGHSPFANLKSCCVPTKLRPMSMLYYDDGQNIIKKDIQNMIVEECGCS

Kd [1]: 10.3 pM | koff [1]: 0.000199 s⁻¹ | kon [1]: 1.93e+07 M⁻¹ s⁻¹
B3: activin B (ligand)
chain: GLECDGRTNLCCRQQFFIDFRLIGWNDWIIAPTGYYGNYCEGSCPAYLAGVPGSASSFHTAVVNQYRMRGLNPGTVNSCCIPTKLSTMSMLYFDDEYNIVKRDVPNMIVEECGCA
